According to the nanobody polyreactivity screen of Harvey et al. (2022):

Experiment: yeast display, Sf9 membrane polyspecificity reagent, FACS + sequencing; frameworks hold sequencing errors
In short: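 After 36–48 hours of galactose induction, yeast (Saccharomyces cerevisiae BJ5465) displaying a synthetic nanobody library were stained at 4 °C for 1 hour with 10% biotinylated, detergent-solubilized Sf9 membrane reagent. Streptavidin microbeads enriched the stained cells before FACS sorting into low and high (top ~1%) gates on anti-HA and streptavidin fluorescence. Each clone's polyreactivity label reflects its gate of origin.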

Sequence	polyreactivity (PSR sort gate)
QVQLVESGGGLVQAGGSLRLSCAASGRIFGYYTMGSYRQAPGKEMELVATINWSGGSTYYADSVKGRFTISRDNAKNTVYLQMNSLKPEDTAVYYCADRPALWGRYRGYDYWGQGTQVTVSS	high polyreactivity
QVQLVESGGGLVQAGGSLRLSCAAYGRTFDTYAMGGYRQAPGKERELVAAITKGGGSTYYADSVKGRFTISRDNAKNTVYLQMNSLKPEDTAVYYCNDRVHGEYFHGIRYYYWGQGTQVTVSS	low polyreactivity
QVQLVESGGGLVQAGGSLRLSCAASGLTFRYYAMGWYREAPGKEREFVAAITSSGGSTDYADSVKGRFTISRDNAKNSVYLQMNSVKPDDTGVFYCAAATNTQESVPMYYWGQGTQVTVSS	low polyreactivity
QVQLVESGGGLVQAGGSLSLSCAASGSNFVYYAMGWSRQAPGKERELVAAINFRGGNTYYADSVKGRFTISRDNAKNTVYLQMNSLKPEDTAVYYCAADYRWKWIGGARYDYWGQGTQVTVSS	low polyreactivity
QVQLVESGGGLVQAGGSLRLSCAASGIIFQFYAMGWYRQAPGKERELVAAISRSGGITHYADSVKGRFTISRDTAQNTVYLQMNSLKPEDTAVYYCAAVRQAYPRLDYWGQGTQVTVSS	high polyreactivity
QVQLVESGGGLVQAGGSLRLSCAAYGRILSLYAMGWYRQAPGKERQLVAAIRWSGSRTYYADSVKGRFTISRDNAKNTVYLQMNSLKPEDTAVYYCAARDSTNLLSGYTHYYWGQGTQVTVSS	high polyreactivity
QVQLVESGGGLVQAGGSLRLSCAASGSILDIYAMGWSRQAPGKERELVAGISTSGGSTYYADSVKGRFTISRDNAKNTVYLQMNSLKPEDTAVYYCAKDYGYQGHTRTLYWAYLEYDYWGQGTQVTVSS	low polyreactivity
QVQLVESGGGLVQAGGSLRLSCAASGRIFQYYAMGWYRQAPGKERELVAAISSSGGSTYYADSVKGRFTISRDNAKNTVYLQMNSLKPEDTAVYYCNADRNARQNRRDYWGQGTQVTVSS	high polyreactivity
QVQRVESGGGLVQAGGSLRLSCAASGFIFPWYAMGWYRQAPGKESELVAAISRGGRTNYADSVKGRFTISRDNAKNTVYLQMNSLKPEDTAVYYCAKKYYLSGSRADDSGGQGTQVTVSS	high polyreactivity
QVQLVESGGGLVQAGGSLRLSCAASGRTFYVYAMGWYRQAPGKERELVAAISQDDGGTYYADSVKGRFTISRDNAKNTVYLQMNSLKPEDTAVYYCAAKEWRYGYDYGYWGQGTQVTLSS	low polyreactivity
QVQLVESGGGLVQAGGSLRLSCAASGSTLGGYAMGWYRQAPGKERELVAAIRWGGNTYYADSVKGRFTISRDNAKNTVYLQMNSLKPEDTAVYYCAADRWYYFLMYYWGQGTQVTVSS	low polyreactivity
QVQLVESGGGLVQAGGSLRLSSAASGSIFYGNAMGWYRQAPGKESELVAAISARGGSTNYADSVKGRFTISRDNAKITVYLQMNSLIPEDTAVYYCAAKVRVWYYRMDSWGQGTQVTVSS	low polyreactivity
QVQLVESGGRLVQARGSLRLICAASGLIIAYYTMGWYRQAPGKEREFVAVIDWIGVSTYYADSVKGRFTISRDNAKNTVYLQMNSLKPEDTAVYYCNADNAFPSPKSSLDYWGQGTQVTVSS	low polyreactivity
QVQLVESAGGLVQAGGSLSLSCAASGRIFYSYAMGWYRQAPGKERELVAAISSAGSTYYADSVKGRFTMSRDNEKNTVYLQTNSLKPEDTAVYYCAAYRAGNSYYPRLNYWGQGTQVTVSS	high polyreactivity
QVQLVESGGGLVQAGGSLRLSCAASGRTFNYYAMGWYRQAPGKERELVAAISWSGTPTYYADSVKGRFTISRDNAKNTVYLQMNSLKPEDTAVYYCAAGYNYTSYADLDYWGQGTQVTVSS	low polyreactivity
QVQLVESGGGLVQAGGSLRLSCAASGGIFDGNAMGWYRQAPGKERELVAAISSGGITKYADSVKGRFTISRDNAKNTVYLQKNSLKPEDTAVYYCAASWYRYRFIRYDYWGQGTQVTVSS	high polyreactivity
QVQLVESGGGLVQAGGTLRLSCAASGFIISRNAMGWYRQAPRKERELVAAITWPGGTTYYADSVKGRFTISRDNAKNTVYLQMISLKPEDTAVYYSAADEYGPHTFSPEYDSWGQGTQVTVSS	low polyreactivity
QVQLVESGGGLVQAGGSLRLSCAASGSTLPGNVMGWYRQAPGKERELVAAISWTGGSTYYADSVKGRFTISRDNAKNTVYLQMNSLKPEDTAVYYCAVDAYESPWWSDPYEYWGQGTQVTVSS	low polyreactivity
QVQLVESGGGLVQAGGSLRLSCAASGSNFSGNAMGWYRQAPGKERELVAAISRRGGRTYYADSVKGRFTISRDNAKNTVYLQMNSLIPEDTAVYYCNADSVRYDYSAYDYEYWGQGTQVNVSS	high polyreactivity
QVQLVESGGGLVQAGGSLRLSCAASGSTFWYYAMGWYRQAPGKERELVAAISRGGNTYYADSVKGRFTISRDNAKNTVYLQMNSLKPEDTAVYYCAARVHYWYPSTGHHYWGQGTQVTVSS	high polyreactivity
QVQLQESGGGLVQAGGCLSCTASGTIFGQGDMGWYRQAPGKERELVATINVGASTYYADSVKGRFTISRDKAKNTVYLQKNSLKPDDTAVYYCAVFTDITTYFGYWGQGTQVTVSS	low polyreactivity
QVQLVESGGGLVQAGGSLRLSCAAAGSIVWFYAMGWYRQAPGKERELFASISSSGGSTYYADSVKGRFTISRDKAKNPGNIQMNTLKPEYTAVYYCAKRTNWGYWYNSWGQGTQVTVSS	high polyreactivity

Sequence	polyreactivity (PSR sort gate)
QVQLVESGGGLVQAGGSLRLSCAASGSTFRYYAMGWYRQSPGKEREFVAAITKVGSRTSYADSVKGRFTISRDNAKNTVYLQMNSLKPEDTAVYYCATRDSPRTKNGYYYWGQGTKVTVSS	high polyreactivity
QVQLVESGGGLVQAGGSLRLSCAATGITFYPNGMGWYRPAPGKEREFVAAITSSGGSTYYADSVKGRFTISRDNAKNSVYLQMNSLKPEDTAVYYCAAQYYPISYYGYGYWGQGTQVTVSS	low polyreactivity
QVQLVESGGGLVQAGGSLRLSCAASGSTFPSYAMGWYRQAPGKERELVAAITNGGSTTYADSVKGRFTISRDNAKNTVYLQMNSLKPDDTAVYYCAARYYYYYYYIRRDYWGQGTQVTVSS	low polyreactivity
QVQLVESGGGLVQAGGSLRLSCAASGRTFSSYAMGWYRQEPGKERELVARINSDGGRTYYADSVKGRFTISRDNAKNTVYLQMNSLKPEDTAVYYCAKRVVRGKVDYWGQGTQVTVSS	low polyreactivity
QVQLVESGGGLVQAGGSLRLSCAASGSIIRRYAMGWYRQAPGKERELVAAISSGGSTYYADSVKGRFTISRDNAKNTVYLEMNSLKPVDTAVYYCAAAQRVSWLFGYWGQGTQVTVSS	high polyreactivity
QVQHVESGRGLVQAGGSLRLSCAASGSIQGGNARGCSSQAPGKESELVAAITFSGGGTYYADSVKGRLTISRDNAKNTVYLQMNSVKPEDTAVYYCAADIDGYTYEFDYWGQGTQVTVYS	low polyreactivity
QVQLVDSGGGLVQAGGSLRLSCAASGRTIYNYDMGWYRQAPGKERELVARIFSGGSTNYADSVKGRFTISRDNAKNTVYLQMNSLKPEDTAVYYCNAVLESQFIGWKFFYWGQGTQVSVSS	high polyreactivity
QVQLVESGGGLVQAGGSLRISCAASGSIFYVYAMGLYRQAPGKERELVAAISRRGARTYYADSVKGRFTISRDNAKNTVYLQMNSLKPEDSAVYYCNADQYYTVGYSAEYEYWGQGTQVTVSS	low polyreactivity
QVQLVESGGGLVQAGGSLRLSCAASGSIFDDYAMGWYRQAPGKERELVAAIDYTGGSTYYADSVKGRFTISRDNAKNTVYLQMNSLIPEDTAVYYCAAEVRVYYYLGGGYSWGQGTQVTVSS	low polyreactivity
QVQLVESGVGLVQAGGSLRLSCAASGISFVGNAMGWYRQAPGKERELVASINSGGSTYYADSVKGRFTISRDNAKYTVYLQMNSLKPADTAVYYCAVEEDRYYYDDYDYWGQGTQVTVSS	low polyreactivity
QVQLVESGGGLVQAGGSLRLSCAASGLTFYWNAMGWYRQAPGKERELVASISQSSGNTYYADSVKGRFSISRDNAKNTVYLQMNSLKPEDTAVYYCAARNRPSLNRYYYWGQGTQVNVSS	low polyreactivity
QVQLVESGGGLVQAGGSLRLSCAASGFTFTRYAMGWYRQAPGKERELVAAISSRGGSTNYADSVKGRFTISRDNAKNTVYLQMNSLKPEDTAVYYCAAEYYRLRYEYDYWGQGTQVTVSS	high polyreactivity
QVPLVESGGGLVQAGGSLRLSCAACGFIFGSYSMGWYRQAPGKERELVAAITSDGNTDYADSVKGRFTISRDNAKNTVYLQMNSLKPEDTAVYYCATDWVDHYDYWGQGTQVTVSS	low polyreactivity
QVHLVESGGGIVQAGGSLRLSCAASGRTFWNYAMRWYRQAPGKERELVAVIRFSDGSTYYADSVKGRFTISRDNAKNTVYVQMNSLKPEDTAVYYCAAKGQRRWGSGFDYWGQGTQVTVSS	low polyreactivity
QLQLVQSGGGLVQAGGSLRLSCAASGRIFFKYVKGWYRQAPGKERELVAAISSAGSTYYADSVKRRFTISRDNAKNTVYLQMNSLQPEDTAVYYCATYYSAINYGWSKTILYDYWGQGTQVTVSS	low polyreactivity
QVQLVESGGGVVQAGGSLRLSCSASGSTFLGYVMGWYRQAPGKEREFVAVISRSGGDTYYADSVKGRFTISRDNAKNTVYLQMNSLKPEDTAVFYCNTRVRASSVDYDEGDYWGQGTQVTVSS	low polyreactivity
QVQLVESGGGLVQAGGSLRLSCAASGRTFVRNAMGWYRQAPGKERELVASITSGGSTYYADSVKGRFTISRDNAKNTVYLQMNSLKAEDTAVYYCAKRTYTPVYGYYYWGQGTQVTVSS	high polyreactivity
QVQLVESGGGLVKAGGSLRLSCAASGFNFGGNVMGWYRQAPGKERELVAAITYSGGSTYYADSVKGRFTISRDNAKNTVYLQMNSLKPEDTAVYYCAAVQRKYYIDPAYDYWGQGTQVTVSS	low polyreactivity
QVQLVESGGGLVQAGGSLRLSCAASGSTFDQYAMGWYRQEPGKERELGAAISGSGGRTYYADSVKGRFTISRDNAKNTVYLQLNSLKPEDTAVYYCNTRAWRWGTDNSWGQGTQVTVSS	high polyreactivity
QVQLVESGGGLVQAGGSLRLSCAASGRTFWFNAMGWYRQAPGKEREFVAAISWRGGSTYYADSVKGRFTISRDNAKNTVYLQMNSLKPEDTAVYYCAVDGEYYSDVYLYYRWDDYWGQGTQVTVSS	low polyreactivity
QVQLVESGGGLVQAGCSLRLTCPASGSIIKLYAMGWYRQAPGKEREMVAAITSVGSTYYADSVKGRFTISRDNAKNTVYFQMKSLKPEDTAVYYCAASVYYLYFHAKYDYWGQGTLVTVSS	low polyreactivity
